Laboratory results reported in publication PMC10770396, “Dimerization of the 4Ig isoform of B7-H3 in tumor cells mediates enhanced proliferation and tumorigenic signaling” (Communications Biology, 2024).
One block for each binder: values may come before it.

Experiments:
[1] = molecular target: the molecule itself; test: SEC; analytical SEC, Superdex 200 10/300, PBS + 0.1 M NaCl + 0.05% NaN3, flow 0.5 ml/min, protein at 100 μg/mL; apparent molecular weight from a calibration curve; monomer to dimer
[2] = molecular target: T1, 4Ig-B7-H3-mEGFP (human), Q5ZPR3; test: FRET or BRET; homo-FRET fluorescence lifetime imaging (FRET-FLIM, TCSPC) of mEGFP fusions in fixed, transiently transfected HeLa CD276-/- KO cells; bi-exponential fit; details: remark: other sources report otherwise
T1 chain: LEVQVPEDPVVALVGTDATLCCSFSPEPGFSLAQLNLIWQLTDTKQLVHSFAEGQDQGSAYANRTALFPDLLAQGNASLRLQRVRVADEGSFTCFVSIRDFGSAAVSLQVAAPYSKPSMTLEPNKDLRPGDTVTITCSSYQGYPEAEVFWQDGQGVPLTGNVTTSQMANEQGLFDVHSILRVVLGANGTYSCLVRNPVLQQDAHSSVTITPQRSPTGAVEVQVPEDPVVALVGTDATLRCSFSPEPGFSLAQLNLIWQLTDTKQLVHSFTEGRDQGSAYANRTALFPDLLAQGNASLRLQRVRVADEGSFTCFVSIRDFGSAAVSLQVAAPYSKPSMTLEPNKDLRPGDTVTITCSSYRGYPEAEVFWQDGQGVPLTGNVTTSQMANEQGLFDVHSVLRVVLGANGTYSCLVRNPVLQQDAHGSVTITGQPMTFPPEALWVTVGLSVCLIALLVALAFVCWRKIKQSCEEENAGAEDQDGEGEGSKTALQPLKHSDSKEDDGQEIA

B1: murine 2Ig-B7-H3 extracellular domain (amino acids: Val29 – Phe244), recombinant (domain or fragment, UniProt Q8VE98 29-244, looked up)
chain: VEVQVSEDPVVALVDTDATLRCSFSPEPGFSLAQLNLIWQLTDTKQLVHSFTEGRDQGSAYSNRTALFPDLLVQGNASLRLQRVRVTDEGSYTCFVSIQDFDSAAVSLQVAAPYSKPSMTLEPNKDLRPGNMVTITCSSYQGYPEAEVFWKDGQGVPLTGNVTTSQMANERGLFDVHSVLRVVLGANGTYSCLVRNPVLQQDAHGSVTITGQPLTF
notes: B7-H3 (CD276), murine, 2Ig isoform, extracellular domain, residues Val29 – Phe244; also called murine B7-H3; source: bought: R&D Systems (functionally active recombinant protein)
stoichiometry N [1]: 2

mEGFP fluorescence lifetime, bi-exponential fit, first fraction [2]: 2.57 ns
mEGFP fluorescence lifetime, bi-exponential fit, second fraction [2]: 1.33 ns
B2: 4Ig-B7-H3-mEGFP, Q5ZPR3 29-534 (natural protein)
chain: T1 chain

B3: human 4Ig-B7-H3 extracellular domain (amino acids: Gly27 – Thr461), recombinant (domain or fragment, UniProt Q5ZPR3 27-461, looked up)
chain: GALEVQVPEDPVVALVGTDATLCCSFSPEPGFSLAQLNLIWQLTDTKQLVHSFAEGQDQGSAYANRTALFPDLLAQGNASLRLQRVRVADEGSFTCFVSIRDFGSAAVSLQVAAPYSKPSMTLEPNKDLRPGDTVTITCSSYQGYPEAEVFWQDGQGVPLTGNVTTSQMANEQGLFDVHSILRVVLGANGTYSCLVRNPVLQQDAHSSVTITPQRSPTGAVEVQVPEDPVVALVGTDATLRCSFSPEPGFSLAQLNLIWQLTDTKQLVHSFTEGRDQGSAYANRTALFPDLLAQGNASLRLQRVRVADEGSFTCFVSIRDFGSAAVSLQVAAPYSKPSMTLEPNKDLRPGDTVTITCSSYRGYPEAEVFWQDGQGVPLTGNVTTSQMANEQGLFDVHSVLRVVLGANGTYSCLVRNPVLQQDAHGSVTITGQPMT
notes: B7-H3 (CD276), human, 4Ig isoform, extracellular domain, residues Gly27 – Thr461; commercial proteins of this kind often carry a C-terminal His tag (surmise); also called CD276; source: bought: R&D Systems (functionally active recombinant protein)
stoichiometry N [1]: 2
